Results on 94 variants are retold here after the supplement of paper PMC10567573.

The chains are these.
B1: FUNDC2 (parent)
chain: YIKVDWQRVEKDMKKAKEQLKIRK
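Also: lentivirally expressed fusions sorted by FACS into six bins by GFP to DsRed ratio, PSI derived from sequencing read proportions per bin multiplied by bin number.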

Variants of B1 are the subject of the data set. In words: protein stability index of a GFP-peptide fusion (GPS, HEK-293T) (PSI 1-6); higher = more stable. Conditions: c terminus: a fixed tail appended.
In the case of YIKVDWDRVEKDMKKAKEQLKIRK, the protein stability index was found to be 1.49.

As for YIKVDWCRVEKDMKKAKEQLKIRK, the protein stability index came to 2.41.

As to YIKVDWERVEKDMKKAKEQLKIRK, the protein stability index came to 1.92.

Regarding YIKVDWPRVEKDMKKAKEQLKIRK, the protein stability index was found to be 1.37.

As to YIKVDWYRVEKDMKKAKEQLKIRK, the protein stability index amounted to 1.69.

For the variant YIKVDWNRVEKDMKKAKEQLKIRK, the protein stability index worked out at 2.47.

Regarding YIKVDWRRVEKDMKKAKEQLKIRK, the protein stability index amounted to 1.43.

In the case of YIKVDWVRVEKDMKKAKEQLKIRK, the protein stability index is 2.33.

Regarding YIKVDWFRVEKDMKKAKEQLKIRK, the protein stability index was determined as 2.84.

For the variant YIKVDWQRVEKDMKKAKEQMKIRK, the protein stability index amounted to 1.32.

YIKVDWQRVEKDMKKAKEQAKIRK: the protein stability index was found to be 2.3.

For YIKVDWQRVEKDMKKAKEQGKIRK, the protein stability index turned out to be 1.89.

On to YIKVDWQRVEKDMKKAKEQCKIRK, for which the protein stability index came out at 2.

Consider YIKVDWQRVEKDMKKAKEQVKIRK, for which the protein stability index stood at 1.77.

As for YIKVDWQRVEKDMKKAKEQRKIRK, the protein stability index worked out at 1.6.

Regarding YIKEDWQRVEKDMKKAKEQLKIRK, the protein stability index was found to be 1.81.

As to YIKCDWQRVEKDMKKAKEQLKIRK, the protein stability index turned out to be 1.56.

For YIKYDWQRVEKDMKKAKEQLKIRK, the protein stability index was determined as 2.4.

For YIKDDWQRVEKDMKKAKEQLKIRK, the protein stability index was 1.99.

For the variant YIKADWQRVEKDMKKAKEQLKIRK, the protein stability index was determined as 3.41.

With YIKHDWQRVEKDMKKAKEQLKIRK, the protein stability index turned out to be 2.52.

For YIKVDWQRVEKDMKKQKEQLKIRK, the protein stability index worked out at 3.

As for YIKVDWQRVEKDMKKHKEQLKIRK, the protein stability index came to 2.4.

For the variant YIKVDWQRVEKDMKKDKEQLKIRK, the protein stability index came to 1.78.

On to YIKVDWQRVEKDMKKEKEQLKIRK, for which the protein stability index was determined as 1.43.

Turning to YIKVDWQRVEKDMKKYKEQLKIRK, the protein stability index was 1.98.

Turning to YIKVDWQRVEKDMKKMKEQLKIRK, the protein stability index was determined as 1.85.

For the variant YIKVDWQRVEKDMKKGKEQLKIRK, the protein stability index turned out to be 1.89.

YIKVDWQRVEKDMKKLKEQLKIRK: the protein stability index is 1.95.

On to YIKVDWQRVEKDMKKWKEQLKIRK, for which the protein stability index amounted to 1.94.

As to YIKVDWQRVEKDMKKCKEQLKIRK, the protein stability index came out at 2.08.

As to YIKVDWQRVEKDLKKAKEQLKIRK, the protein stability index worked out at 1.63.

In the case of YIKVDWQRVEKDQKKAKEQLKIRK, the protein stability index was 1.82.

Turning to YIKVDWQRVEKDKKKAKEQLKIRK, the protein stability index was determined as 1.92.

As to YIKVDWQRVEKDHKKAKEQLKIRK, the protein stability index came to 1.82.

As for YIKVDWQRVEKDAKKAKEQLKIRK, the protein stability index is 1.24.

In the case of YIKVDWQRVEKDPKKAKEQLKIRK, the protein stability index was determined as 1.17.

In the case of YIKVDWQRVEKDNKKAKEQLKIRK, the protein stability index came out at 2.3.

For YIKVSWQRVEKDMKKAKEQLKIRK, the protein stability index is 1.47.

Turning to YIKVTWQRVEKDMKKAKEQLKIRK, the protein stability index came out at 2.29.

Turning to YIKVMWQRVEKDMKKAKEQLKIRK, the protein stability index was determined as 2.46.

Take YIKVFWQRVEKDMKKAKEQLKIRK: the protein stability index was 2.33.

Consider YIKVCWQRVEKDMKKAKEQLKIRK, for which the protein stability index was determined as 1.03.

In the case of YIKVDWQRVEKQMKKAKEQLKIRK, the protein stability index was found to be 2.63.

For the variant YIKVDWQRVEKYMKKAKEQLKIRK, the protein stability index was 3.43.

As to YIKVDWQRVEKNMKKAKEQLKIRK, the protein stability index was 1.47.

As for YIKVDWQRVEKGMKKAKEQLKIRK, the protein stability index came to 2.68.

For YIKVDWQRVEKDMKKAKEQLQIRK, the protein stability index amounted to 1.62.

YIKVDWQRVEKDMKKAKEQLGIRK: the protein stability index came to 2.13.

In the case of YIKVDWQRVEKDMKKAKEQLHIRK, the protein stability index is 1.74.

As to YIKVDWQRVEKDMKKAKEQLPIRK, the protein stability index was 1.84.

As to YIKVDWQRVEKDMKKAKEQLYIRK, the protein stability index is 2.5.

Turning to YIKVDWQRVEKDMKKAKEQLWIRK, the protein stability index was determined as 2.06.

Take YIKVDWQRVEKDMKKAKEQLLIRK: the protein stability index came out at 1.71.

As to YIKVDWQRVPKDMKKAKEQLKIRK, the protein stability index amounted to 1.77.

Regarding YIKVDWQRVLKDMKKAKEQLKIRK, the protein stability index was 1.65.

Turning to YIKVDWQRVTKDMKKAKEQLKIRK, the protein stability index was determined as 2.36.

With YIKVDWQRVNKDMKKAKEQLKIRK, the protein stability index is 1.62.

In the case of YIKVDWQRVAKDMKKAKEQLKIRK, the protein stability index amounted to 1.92.

Regarding YIKVDWQRVDKDMKKAKEQLKIRK, the protein stability index turned out to be 1.85.

Consider YIKVDWQRVHKDMKKAKEQLKIRK, for which the protein stability index was 2.58.

Take YIKVDWQIVEKDMKKAKEQLKIRK: the protein stability index came to 1.82.

As to YIKVDWQTVEKDMKKAKEQLKIRK, the protein stability index came to 2.21.

For YIKVDWQKVEKDMKKAKEQLKIRK, the protein stability index turned out to be 2.01.

As for YIKVDWQQVEKDMKKAKEQLKIRK, the protein stability index turned out to be 1.68.

Turning to YIKVDWQGVEKDMKKAKEQLKIRK, the protein stability index was 1.71.

Take YIKVDWQYVEKDMKKAKEQLKIRK: the protein stability index was determined as 1.62.

Regarding YIKVDWQAVEKDMKKAKEQLKIRK, the protein stability index stood at 2.35.

For the variant YIKVDWQRVEKDMKKAKEQLKIHK, the protein stability index turned out to be 1.9.

On to YIKVDWQRVEKDMKKAKEQLKIIK, for which the protein stability index is 2.79.

Turning to YIKVDWQRVEKDMKKAKEQLKIFK, the protein stability index was determined as 1.57.

Take YIKVDWQRVEKDMKKAKEQLKIPK: the protein stability index came out at 1.63.

Regarding YIKVDWQRVEKDMKKAKEQLKIQK, the protein stability index turned out to be 2.07.

On to YIKVDWQRVEKDMKKAKEQLKIEK, for which the protein stability index amounted to 1.76.

For YIKVDWQRVEKDMKTAKEQLKIRK, the protein stability index is 2.11.

For YIKVDWQRVEKDMKVAKEQLKIRK, the protein stability index came out at 2.39.

As to YIKVDWQRVEKDMKAAKEQLKIRK, the protein stability index was 1.78.

Consider YIKVDWQRVEKDMKLAKEQLKIRK, for which the protein stability index is 2.19.

Consider YIKVDWQRVEKDMKFAKEQLKIRK, for which the protein stability index came out at 1.42.

As for YIKVDWQRVEKDMKEAKEQLKIRK, the protein stability index turned out to be 1.55.

Take YIKVDWQRVEKDMKWAKEQLKIRK: the protein stability index amounted to 1.94.

On to YIKVDWQRVEKDMKGAKEQLKIRK, for which the protein stability index was 1.89.

Turning to YIKVDWQRVEIDMKKAKEQLKIRK, the protein stability index is 1.78.

Consider YIKVDWQRVEYDMKKAKEQLKIRK, for which the protein stability index is 1.55.

Turning to YIKVDWQRVEFDMKKAKEQLKIRK, the protein stability index amounted to 1.64.

Consider YIKVDWQRVESDMKKAKEQLKIRK, for which the protein stability index came out at 1.97.

As for YIKVDWQRVEEDMKKAKEQLKIRK, the protein stability index came out at 2.01.

Consider YIKVDWQRVEVDMKKAKEQLKIRK, for which the protein stability index was 2.16.

With YIKVDWQRVELDMKKAKEQLKIRK, the protein stability index amounted to 1.46.

On to YIKVDQQRVEKDMKKAKEQLKIRK, for which the protein stability index came out at 2.71.

YIKVDSQRVEKDMKKAKEQLKIRK: the protein stability index was 3.31.

In the case of YIKVDFQRVEKDMKKAKEQLKIRK, the protein stability index was determined as 2.63.

Consider YIKVDDQRVEKDMKKAKEQLKIRK, for which the protein stability index amounted to 3.77.

Regarding YIKVDLQRVEKDMKKAKEQLKIRK, the protein stability index was 2.28.
